This is an account of results in the Human Domainome abundance scans (Beltran et al. 2025).

± gives the uncertainty stated by the source.

The data set in a line: abundance fitness (aPCA) (normalised: wild type 0, dead -1); higher = more abundant; growth selection in yeast, the domain comes from the species named. The following applies: Homo sapiens.
“Transcriptional activator Myb I155T, P10242” came in with an abundance fitness of -0.535 ± 0.083.
“Transcriptional activator Myb I155V, P10242” showed an abundance fitness of -0.187 ± 0.075.
As to “Transcriptional activator Myb I155Y, P10242”, the abundance fitness is -1.21 ± 0.21.
In the case of “Transcriptional activator Myb I169A, P10242”, the abundance fitness is -0.477 ± 0.1.
Regarding “Transcriptional activator Myb I169C, P10242”, the abundance fitness was -0.521 ± 0.14.
As for “Transcriptional activator Myb I169D, P10242”, the figure is -0.679 ± 0.13; as for “Transcriptional activator Myb I169E, P10242”, -0.641 ± 0.12; as for “Transcriptional activator Myb I169F, P10242”, -0.516 ± 0.12.
With “Transcriptional activator Myb I169G, P10242” the figure was -0.681 ± 0.071.
In the case of “Transcriptional activator Myb I169H, P10242”, the abundance fitness was -0.799 ± 0.22.
“Transcriptional activator Myb I169K, P10242” showed an abundance fitness of -1.05 ± 0.15.
“Transcriptional activator Myb I169L, P10242” gave an abundance fitness of -0.427 ± 0.086.
“Transcriptional activator Myb I169M, P10242” displayed an abundance fitness of -0.18 ± 0.093.
As for “Transcriptional activator Myb I169N, P10242”, the abundance fitness was -0.91 ± 0.14.
In the case of “Transcriptional activator Myb I169P, P10242”, the abundance fitness is -0.734 ± 0.12.
Regarding “Transcriptional activator Myb I169Q, P10242”, the abundance fitness is -0.677 ± 0.16.
“Transcriptional activator Myb I169R, P10242” yielded an abundance fitness of -0.784 ± 0.071.
As for “Transcriptional activator Myb I169S, P10242”, the figure is -0.642 ± 0.076; as for “Transcriptional activator Myb I169T, P10242”, -0.567 ± 0.11; as for “Transcriptional activator Myb I169V, P10242”, -0.343 ± 0.094.
“Transcriptional activator Myb I169W, P10242” had an abundance fitness of -1.08 ± 0.18.
Regarding “Transcriptional activator Myb I169Y, P10242”, the abundance fitness was -0.147 ± 0.097.
Consider “Transcriptional activator Myb I181A, P10242”, for which the abundance fitness is -0.569 ± 0.084.
As for “Transcriptional activator Myb I181D, P10242”, the figure is -1 ± 0.17; as for “Transcriptional activator Myb I181E, P10242”, -0.64 ± 0.11; as for “Transcriptional activator Myb I181F, P10242”, -1.16 ± 0.38.
In the case of “Transcriptional activator Myb I181G, P10242”, the abundance fitness is -1.01 ± 0.07.
With “Transcriptional activator Myb I181H, P10242” the figure was -1.17 ± 0.25; with “Transcriptional activator Myb I181K, P10242”, -1.34 ± 0.35; with “Transcriptional activator Myb I181L, P10242”, -0.365 ± 0.094.
Take “Transcriptional activator Myb I181N, P10242”: the abundance fitness is -0.658 ± 0.35.
“Transcriptional activator Myb I181P, P10242” yielded an abundance fitness of -0.881 ± 0.25.
“Transcriptional activator Myb I181Q, P10242”: the abundance fitness was -0.756 ± 0.13.
The substance “Transcriptional activator Myb I181R, P10242” came in with an abundance fitness of -0.933 ± 0.081.
“Transcriptional activator Myb I181S, P10242” had an abundance fitness of -0.694 ± 0.086.
Regarding “Transcriptional activator Myb I181T, P10242”, the abundance fitness was -0.278 ± 0.094.
The substance “Transcriptional activator Myb I181V, P10242” came in with an abundance fitness of -0.036 ± 0.07.
The substance “Transcriptional activator Myb I181W, P10242” registered an abundance fitness of -1.26 ± 0.2.
“Transcriptional activator Myb K143A, P10242” gave an abundance fitness of 0.049 ± 0.15.
As for “Transcriptional activator Myb K143D, P10242”, the figure is -0.192 ± 0.19; as for “Transcriptional activator Myb K143E, P10242”, -0.144 ± 0.17; as for “Transcriptional activator Myb K143F, P10242”, -0.235 ± 0.18.
As for “Transcriptional activator Myb K143G, P10242”, the figure is -0.06 ± 0.059; as for “Transcriptional activator Myb K143I, P10242”, -0.233 ± 0.14; as for “Transcriptional activator Myb K143L, P10242”, -0.221 ± 0.16.
For the substance “Transcriptional activator Myb K143M, P10242”, the abundance fitness is -0.031 ± 0.16.
Take “Transcriptional activator Myb K143P, P10242”: the abundance fitness is -0.406 ± 0.49.
For the substance “Transcriptional activator Myb K143Q, P10242”, the abundance fitness was -0.961 ± 0.36.
For the substance “Transcriptional activator Myb K143R, P10242”, the abundance fitness is -0.228 ± 0.12.
As for “Transcriptional activator Myb K143S, P10242”, the figure is -0.245 ± 0.11; as for “Transcriptional activator Myb K143T, P10242”, -0.118 ± 0.11; as for “Transcriptional activator Myb K143V, P10242”, -0.13 ± 0.087.
With “Transcriptional activator Myb K143W, P10242” the figure was -0.535 ± 0.076; with “Transcriptional activator Myb K143Y, P10242”, -0.201 ± 0.16; with “Transcriptional activator Myb K144A, P10242”, -0.202 ± 0.099.
In the case of “Transcriptional activator Myb K144C, P10242”, the abundance fitness is -0.095 ± 0.12.
With “Transcriptional activator Myb K144D, P10242”, the abundance fitness is 0.06 ± 0.14.
Turning to “Transcriptional activator Myb K144E, P10242”, the abundance fitness is -0.114 ± 0.14.
For “Transcriptional activator Myb K144F, P10242”, the abundance fitness was -0.285 ± 0.16.
Consider “Transcriptional activator Myb K144G, P10242”, for which the abundance fitness is -0.042 ± 0.059.
In turn, “Transcriptional activator Myb K144H, P10242” displayed an abundance fitness of -0.232 ± 0.12.
As to “Transcriptional activator Myb K144I, P10242”, the abundance fitness was -0.206 ± 0.22.
On to “Transcriptional activator Myb K144L, P10242”, for which the abundance fitness is -0.101 ± 0.084.
With “Transcriptional activator Myb K144M, P10242” the figure was 0.028 ± 0.1.
As to “Transcriptional activator Myb K144N, P10242”, the abundance fitness turned out to be 0.073 ± 0.11.
In turn, “Transcriptional activator Myb K144P, P10242” returned an abundance fitness of -0.269 ± 0.11.
“Transcriptional activator Myb K144Q, P10242” displayed an abundance fitness of -0.015 ± 0.1.
Substance “Transcriptional activator Myb K144R, P10242” yielded an abundance fitness of -0.078 ± 0.072.
The substance “Transcriptional activator Myb K144S, P10242” returned an abundance fitness of 0.067 ± 0.085.
The substance “Transcriptional activator Myb K144T, P10242” yielded an abundance fitness of 0.101 ± 0.086.
With “Transcriptional activator Myb K144V, P10242”, the abundance fitness is -0.042 ± 0.085.
With “Transcriptional activator Myb K144W, P10242” the figure was -0.201 ± 0.089.
Turning to “Transcriptional activator Myb K144Y, P10242”, the abundance fitness is 0.08 ± 0.16.
“Transcriptional activator Myb K171A, P10242” showed an abundance fitness of -0.017 ± 0.093.
For the substance “Transcriptional activator Myb K171C, P10242”, the abundance fitness was -0.238 ± 0.12.
With “Transcriptional activator Myb K171D, P10242” the figure was -0.234 ± 0.14; with “Transcriptional activator Myb K171E, P10242”, -0.017 ± 0.064.
The substance “Transcriptional activator Myb K171F, P10242” had an abundance fitness of -0.638 ± 0.22.
Turning to “Transcriptional activator Myb K171G, P10242”, the abundance fitness is -0.336 ± 0.061.
In turn, “Transcriptional activator Myb K171H, P10242” gave an abundance fitness of -0.207 ± 0.28.
As to “Transcriptional activator Myb K171I, P10242”, the abundance fitness was -0.141 ± 0.12.
Regarding “Transcriptional activator Myb K171M, P10242”, the abundance fitness was 0 ± 0.08.
In turn, “Transcriptional activator Myb K171P, P10242” displayed an abundance fitness of -0.354 ± 0.14.
Substance “Transcriptional activator Myb K171Q, P10242” had an abundance fitness of -0.084 ± 0.1.
As for “Transcriptional activator Myb K171S, P10242”, the abundance fitness stood at 0.016 ± 0.071.
“Transcriptional activator Myb K171T, P10242” showed an abundance fitness of -0.148 ± 0.2.
As to “Transcriptional activator Myb K171V, P10242”, the abundance fitness was -0.19 ± 0.088.
With “Transcriptional activator Myb K171W, P10242” the figure was -0.598 ± 0.091; with “Transcriptional activator Myb K182C, P10242”, -0.167 ± 0.11.
On to “Transcriptional activator Myb K182D, P10242”, for which the abundance fitness was -0.548 ± 0.1.
Substance “Transcriptional activator Myb K182E, P10242” gave an abundance fitness of 0.01 ± 0.062.
In the case of “Transcriptional activator Myb K182F, P10242”, the abundance fitness is -0.383 ± 0.16.
“Transcriptional activator Myb K182H, P10242” registered an abundance fitness of -0.299 ± 0.16.
Turning to “Transcriptional activator Myb K182I, P10242”, the abundance fitness was -0.181 ± 0.14.
The substance “Transcriptional activator Myb K182L, P10242” showed an abundance fitness of -0.051 ± 0.068.
